What follows are substances tested against VLA1 I-domain protein (human) (UniProt P56199) (assay: KinExA, solution phase affinity, scFv).
Sequence of UniProt P56199 (P56199 173-364 limits assumed): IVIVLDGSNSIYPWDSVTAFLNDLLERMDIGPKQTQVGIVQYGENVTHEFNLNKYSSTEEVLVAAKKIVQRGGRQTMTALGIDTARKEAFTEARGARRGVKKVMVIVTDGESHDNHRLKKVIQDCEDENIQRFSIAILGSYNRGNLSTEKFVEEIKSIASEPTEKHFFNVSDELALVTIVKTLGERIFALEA
In the case of AQC2 single chain Fv (original) (scFv), the Kd is reported as 25 nM.
“AQC2 single chain Fv mutant, heavy chain D106N (scFv)” was tested, and the Kd was 67 nM.
Substance “AQC2 single chain Fv mutant, heavy chain K64D (scFv)” has a Kd of 6.3 nM.
For “AQC2 single chain Fv mutant, heavy chain K64E (scFv)”, the Kd was 38 nM.
“AQC2 single chain Fv mutant, heavy chain K64N (scFv)” showed a Kd of 4.1 nM.
“AQC2 single chain Fv mutant, heavy chain K64Q (scFv)” was tested, and the Kd was 12 nM.
Substance “AQC2 single chain Fv mutant, heavy chain L60D (scFv)” has a Kd of 21 nM.
“AQC2 single chain Fv mutant, heavy chain R31Q (scFv)” gave a Kd of 8.2 nM.
Substance “AQC2 single chain Fv mutant, heavy chain S35N (scFv)” has a Kd of 39 nM.
“AQC2 single chain Fv mutant, heavy chain S35Q (scFv)” gave a Kd of 37 nM.
Work on “AQC2 single chain Fv mutant, heavy chain T50V (scFv)” yielded a Kd of 14 nM.
In the case of “AQC2 single chain Fv mutant, heavy chain Y32F (scFv)”, the Kd is reported as 34 nM.
In the case of “AQC2 single chain Fv mutant, light chain H31R (scFv)”, the Kd is reported as 31 nM.
For “AQC2 single chain Fv mutant, light chain N30V (scFv)”, the Kd was 8.9 nM.
Substance “AQC2 single chain Fv mutant, light chain N52H (scFv)” has a Kd of 43 nM.
For “AQC2 single chain Fv mutant, light chain N52K (scFv)”, the Kd was 49 nM.
For “AQC2 single chain Fv mutant, light chain N52R (scFv)”, the Kd was 17 nM.
